Measured values published in patent US10746738B2, “Claudin-1 peptide reagents and methods” (THE REGENTS OF THE UNIVERSITY OF MICHIGAN, priority 2015, dated 2020).

Legend:
SW620 cells = test: Apparent dissociation constant by flow cytometry; assay type: binding, human; settings: 0-200 nM, 1 h at 4° C., R^2=0.95
Experimental: The apparent dissociation constant of RTS*-Cy5.5 to SW620 cells was measured. SW620 cells were washed two times with PBS+0.5% BSA, then 1×10^5 cells were incubated with RTS*Cy5.5 at dilutions ranging from 0-200 nM for 1 h at 4° C. Cells were then washed of unbound peptide 5 times with PBS+0.5% BSA before analyzing via flow cytometry (FACS Canto, BD). Sample means were used to calculate the equilibrium dissociation constant, kd, via nonlinear regression analysis using GraphPad Prism software.
The apparent dissociation constant (kd) of the peptides to cells in vitro was determined. The fluorescently-labeled peptide was be serially diluted in PBS at concentrations that ranged from 0 to 200 nM in 25 nM increments. Cells were incubated with the peptide, and the mean fluorescence intensities was measured on flow cytometry. The equilibrium dissociation constant kd=1/ka was calculated by performing a least squares fit of the data to the non-linear equation I=(I0+Imaxka[X])/([…]). I0 and Imax are the initial and maximum fluorescence intensities, corresponding to no peptide and at saturation, respectively, and [X] represents the concentration of the bound peptide. This approach is illustrated with RTS*-Cy5.5 in FIG. 3B, where kd=42 nM.

claudin-1 (CLDN1) = target: T1, claudin-1 (CLDN1) (Homo sapiens, UniProt O95832); test: siRNA knockdown of CLDN1 expression, peptide and antibody binding to SW620 cells; assay type: cell-based
T1 construct: endogenous in cells; host or cells: SW620 human colorectal adenocarcinoma cells
T1 sequence (O95832 1-211): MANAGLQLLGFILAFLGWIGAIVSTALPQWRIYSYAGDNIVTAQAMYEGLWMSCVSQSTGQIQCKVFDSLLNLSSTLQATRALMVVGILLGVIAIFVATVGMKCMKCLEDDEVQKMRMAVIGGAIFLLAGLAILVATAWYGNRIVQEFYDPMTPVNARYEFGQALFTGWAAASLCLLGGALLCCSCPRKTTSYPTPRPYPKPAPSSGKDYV
Experimental: CLDN1 expression was knocked down using Dharmacon On-Target Plus SMARTpool Human CLDN1 siRNA (Thermo Scientific) according to the manufacturer's protocol. SW620 cells were plated overnight on coverslips in a 12-well plate at 0.2×10^6 cells/mL. The following day, cells were transfected with 3 μL DharmaFECT1 and either 25 nM CLDN1 or control siRNA. After 72 h, transfected cells were analyzed for CLDN1 expression through immunocytochemistry, a peptide binding study, or a Western blot of the cell lysate. For the immunocytochemistry experiment, cells were fixed with ice-cold methanol for 20 minutes at −20° C., blocked for 1 h at RT with PBS+2% BSA, stained with anti-human CLDN1 antibody at 5 μg/mL for 1 h at RT, then with goat anti-Rabbit AF488 (1:500) for 1 h at RT before being mounted on slides with DAPI with Prolong Gold. siRNA-transfected cells were also stained with 5 μM RTS-Cy5.5 or SPT-Cy5.5 for 30 minutes at 4° C., fixed with 4% PFA for 10 minutes at RT, then mounted on slides. Simultaneously, transfected cells were lysed with RIPA buffer containing Roche Mini-Complete EDTA-free Protease Inhibitor for 10 minutes on ice, collected and spun at 20,000×g for 10 minutes at 4° C. Supernatant was saved, total protein concentration quantified via a BCA assay, and 10 ug protein of each sample run on a Novex 4-20% 1.5 mm protein gel before transferring to a PVDF membrane. The membrane was blocked with PBST+5% non-fat milk for 1 h at 4° C., stained with either rabbit anti-CLDN1 Ab or mouse anti-tubulin Ab at 4° C. overnight, then with anti-rabbit HRP (1:500, for CLDN1) or anti-mouse HRP (1:500, for tubulin) for 1 h at RT before developing.
The specificity of peptide binding was validated on siRNA knockdown. […] These cells were transfected with siRNA to knockdown cell surface expression of claudin-1. […] The fluorescence intensities (mean±std) are shown (FIG. 2H). […] Given the experimental design and mean-squared-errors shown in FIG. 2H, with triplicate slides we have 98% power to obtain P<0.01 for interactions that show a 3-fold difference of differences.

RTS*-Cy5.5: RTSPSSR labeled at the C-terminus with Cy5.5 via a GGGSK linker
Kd (SW620 cells): 42 nM
signal for siCL versus siCLDN1 cells (claudin-1 (CLDN1); SW620 cells, control siRNA versus CLDN1 siRNA, 3 replicate slides): 10.5 fold-change
binding to the surface of SW620 cells (claudin-1 (CLDN1); confocal microscopy): strong binding
